Test results published in publication PMC4299175.

Molecular target: GST-tagged recombinant phosphorylated human ERK2 (human) (UniProt P28482)
Chain of UniProt P28482 (P28482 whole entry): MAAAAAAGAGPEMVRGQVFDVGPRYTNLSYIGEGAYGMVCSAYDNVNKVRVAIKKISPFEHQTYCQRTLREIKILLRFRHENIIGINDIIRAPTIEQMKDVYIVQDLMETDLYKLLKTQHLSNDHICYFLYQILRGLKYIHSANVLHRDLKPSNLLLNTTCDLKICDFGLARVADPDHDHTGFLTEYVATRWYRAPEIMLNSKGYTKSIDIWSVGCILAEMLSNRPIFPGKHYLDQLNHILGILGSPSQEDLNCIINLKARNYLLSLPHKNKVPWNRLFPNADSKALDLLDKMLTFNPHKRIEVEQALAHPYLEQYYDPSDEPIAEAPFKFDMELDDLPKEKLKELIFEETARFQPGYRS

- dephosphorylation of pERK2 by western blot, dose curve 0.1-10 nM enzyme, 15 min; concentration at which the pERK band is completely absent (0.5 nM for GST-DUSP5): 5 nM
B1: GST-S147P, glutathione-S-transferase-tagged full-length human DUSP5 serine 147 proline mutant (enzyme)
chain: MKVTSLDGRQLRKMLRKEAAARCVVLDCRPYLAFAASNVRGSLNVNLNSVVLRRARGGAVSARYVLPDEAARARLLQEGGGGVAAVVVLDQGSRHWQKLREESAARVVLTSLLACLPAGPRVYFLKGGYETFYSEYPECCVDVKPIPQEKIESERALISQCGKPVVNVSYRPAYDQGGPVEILPFLYLGSAYHASKCEFLANLHITALLNVSRRTSEACATHLHYKWIPVEDSHTADISSHFQEAIDFIDCVREKGGKVLVHCEAGISRSPTICMAYLMKTKQFRLKEAFDYIKQRRSMVSPNFGFMGQLLQYESEILPSTPNPQPPSCQGEAAGSSLIGHLQTLSPDMQGAYCTFPASVLAPVPTHSTVSELSRSPVATATSC
